Bridges are numbered along the chain shown (N, C = ends). Where no end group is shown, it is not given here.
T1: mouse R-cadherin fused to Red Fluorescent Protein, on stably transfected L-cells (mouse, UniProt P39038 167-913)
T1 sequence (looked up): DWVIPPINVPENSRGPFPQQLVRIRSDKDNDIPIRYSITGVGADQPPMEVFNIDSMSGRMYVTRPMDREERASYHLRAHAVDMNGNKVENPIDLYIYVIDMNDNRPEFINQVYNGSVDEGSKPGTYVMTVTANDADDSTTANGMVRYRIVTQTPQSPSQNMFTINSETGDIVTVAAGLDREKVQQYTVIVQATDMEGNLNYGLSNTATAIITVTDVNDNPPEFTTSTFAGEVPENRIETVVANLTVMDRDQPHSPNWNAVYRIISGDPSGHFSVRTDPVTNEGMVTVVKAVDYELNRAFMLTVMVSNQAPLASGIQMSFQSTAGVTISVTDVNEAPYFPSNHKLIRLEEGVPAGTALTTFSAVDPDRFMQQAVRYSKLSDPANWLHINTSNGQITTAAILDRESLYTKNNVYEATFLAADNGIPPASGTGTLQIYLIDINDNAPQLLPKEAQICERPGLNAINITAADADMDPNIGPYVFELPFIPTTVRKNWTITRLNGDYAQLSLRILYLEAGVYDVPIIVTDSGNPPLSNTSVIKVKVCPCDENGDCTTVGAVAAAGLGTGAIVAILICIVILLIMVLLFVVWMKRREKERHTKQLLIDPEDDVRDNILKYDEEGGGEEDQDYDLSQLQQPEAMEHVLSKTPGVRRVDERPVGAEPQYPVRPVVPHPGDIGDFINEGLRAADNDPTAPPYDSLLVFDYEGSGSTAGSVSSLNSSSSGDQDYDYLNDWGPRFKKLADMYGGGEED

T2: mouse N-cadherin fused to Red Fluorescent Protein, on stably transfected L-cells (mouse, UniProt P15116 160-906)
T2 sequence (looked up): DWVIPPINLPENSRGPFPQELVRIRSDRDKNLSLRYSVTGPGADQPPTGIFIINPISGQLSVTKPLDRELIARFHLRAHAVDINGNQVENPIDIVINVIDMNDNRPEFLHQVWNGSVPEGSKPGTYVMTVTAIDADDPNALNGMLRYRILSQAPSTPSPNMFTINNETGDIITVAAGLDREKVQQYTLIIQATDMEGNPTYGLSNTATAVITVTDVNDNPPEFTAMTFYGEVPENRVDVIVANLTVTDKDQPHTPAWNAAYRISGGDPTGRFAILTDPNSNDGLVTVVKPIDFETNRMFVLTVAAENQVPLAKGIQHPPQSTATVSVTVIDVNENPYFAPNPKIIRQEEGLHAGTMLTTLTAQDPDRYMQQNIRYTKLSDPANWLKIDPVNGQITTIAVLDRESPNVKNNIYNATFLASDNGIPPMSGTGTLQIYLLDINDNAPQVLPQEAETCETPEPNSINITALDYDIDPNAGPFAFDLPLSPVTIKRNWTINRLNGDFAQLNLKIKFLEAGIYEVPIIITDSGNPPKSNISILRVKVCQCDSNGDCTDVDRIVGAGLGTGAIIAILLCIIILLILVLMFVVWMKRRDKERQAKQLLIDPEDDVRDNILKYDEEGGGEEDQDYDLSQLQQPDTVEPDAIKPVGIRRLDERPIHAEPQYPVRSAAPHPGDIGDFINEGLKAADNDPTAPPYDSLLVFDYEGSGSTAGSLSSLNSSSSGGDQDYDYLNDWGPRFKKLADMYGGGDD


Key:
[1] = target: T1, mouse R-cadherin fused to Red …; experiment: cell-based or functional assay
[2] = target: T2, mouse N-cadherin fused to Red …; experiment: cell-based or functional assay

| Binder | IC50 of inhibition of R-cadherin mediated L-cell adhesion (aggregation) [1] [µM] | effectiveness relative to cyclic IDS in the aggregation assay [1] [fold lower] | IC50 of inhibition of R-cadherin mediated L-cell aggregation [1] [µM] | IC50 of inhibition of N-cadherin mediated L-cell aggregation [2] [µM] |
| --- | --- | --- | --- | --- |
| IDSMSGR (not fully specified) [IDSMSGR (SEQ ID NO: 2)] | ~900 | ~3 |  |  |
| CIDSC (disulfide 1-5; not fully specified) [cyclic CIDSC (SEQ ID NO: 8)] |  |  | ~300 |  |
| CHAVC (disulfide 1-5) [cyclic HAV peptide (CHAVC, SEQ ID NO: 20)] |  |  | 150 to 200 | 150 to 200 |
| CINPC (disulfide 1-5; not fully specified) [cyclic CINPC (SEQ ID NO: 9)] |  |  |  | < 300 |

— patent publication US20050004013A1 (Scripps Research, published 2005)
